From PMC2606688, “High-fidelity correction of genomic uracil by human mismatch repair activities” come the findings set out here.

The target in data set [1] is T1, MSH2 (MutSα subunit);MSH6 (MutSα subunit) (Homo sapiens;Homo sapiens, UniProt P43246;P52701 1-934;1-1360, |). The data set is described as follows: EMSA; apparent Kd; homoduplex competitor EDL365/EDL366 in reaction; no Mg2+, 1 mM EDTA; 25 mM Tris pH 7.7, 100 mM KCl, 1 mM EDTA, 1 mM DTT, 7.5% glycerol, 10 fmol labeled duplex in 30 µl, homoduplex competitor, on ice 5 min; 6% native PAGE in 0.5x. The settings on record: protein: recombinant;recombinant; tags: ;; copies: 1;1; label: 5'-32P on strand 1 (EDL56); blunt, 30 bp, single U•G mismatch.

Data set [2] concerns the target T1, MSH2 (MutSα subunit);MSH6 (MutSα …). Description: competition; unlabeled N1 at 50-fold molar excess against labeled N1 (EMSA); 25 mM Tris pH 7.7, 100 mM KCl, 1 mM EDTA, 1 mM DTT, 7.5% glycerol, 10 fmol labeled duplex in 30 µl, homoduplex competitor, on ice 5 min; 6% native PAGE in 0.5x. The settings on record: protein: recombinant;recombinant; tags: ;; copies: 1;1; label: 5'-32P on strand 1 (EDL56); blunt, 30 bp, single U•G mismatch.

B1: U•G duplex (EDL56/EDL364) (dsDNA)
DNA 1: GCCGAATTTCTAGAATUGAAAGCTTGCTAG
DNA 2: CTAGCAAGCTTTCGATTCTAGAAATTCGGC
modifications: deoxyuridine at position 17 of strand 1, mispaired with G
In the case of B1, the Kd in data set [1] turned out to be 0.07 µM. Besides, the binding signal in data set [2] is > 5 fold decrease of probe binding.
